Measured values: publication PMC5096715

Tests used:
C3d C3d (Homo sapiens) = C3d C3d (Homo sapiens) (UniProt P01024); assay: biolayer interferometry; conditions: cited from earlier work
[1] = target: complement component C3b, serum-derived (human) (UniProt P01024)
[2] = target: complement component C3b, serum-derived (human) (UniProt P01024); remark: listed apart in the source

C3d C3d (Homo sapiens), sequence (P01024 1002-1303): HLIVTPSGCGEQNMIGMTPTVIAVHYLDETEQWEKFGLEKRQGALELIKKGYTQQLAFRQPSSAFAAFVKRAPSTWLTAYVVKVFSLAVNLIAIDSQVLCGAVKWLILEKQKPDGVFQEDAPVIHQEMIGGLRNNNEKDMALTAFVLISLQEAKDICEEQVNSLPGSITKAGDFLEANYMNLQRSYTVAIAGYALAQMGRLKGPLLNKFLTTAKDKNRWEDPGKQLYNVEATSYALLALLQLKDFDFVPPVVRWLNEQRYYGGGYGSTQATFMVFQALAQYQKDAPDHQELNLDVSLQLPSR
CFHR1, sequence (Q03591 19-330): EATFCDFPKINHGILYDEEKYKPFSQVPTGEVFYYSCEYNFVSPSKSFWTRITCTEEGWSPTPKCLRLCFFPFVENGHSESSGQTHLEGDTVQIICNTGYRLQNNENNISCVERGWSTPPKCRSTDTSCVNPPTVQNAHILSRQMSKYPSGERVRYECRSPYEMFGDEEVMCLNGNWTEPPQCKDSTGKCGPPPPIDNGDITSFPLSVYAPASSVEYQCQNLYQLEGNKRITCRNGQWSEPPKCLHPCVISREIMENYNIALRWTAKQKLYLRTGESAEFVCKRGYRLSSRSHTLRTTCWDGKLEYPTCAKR
complement factor H-related protein 1 (CFHR1), recombinant wild-type, sequence (Q03591 19-330): as above
complement factor H (CFH), recombinant, sequence (P08603 19-1231): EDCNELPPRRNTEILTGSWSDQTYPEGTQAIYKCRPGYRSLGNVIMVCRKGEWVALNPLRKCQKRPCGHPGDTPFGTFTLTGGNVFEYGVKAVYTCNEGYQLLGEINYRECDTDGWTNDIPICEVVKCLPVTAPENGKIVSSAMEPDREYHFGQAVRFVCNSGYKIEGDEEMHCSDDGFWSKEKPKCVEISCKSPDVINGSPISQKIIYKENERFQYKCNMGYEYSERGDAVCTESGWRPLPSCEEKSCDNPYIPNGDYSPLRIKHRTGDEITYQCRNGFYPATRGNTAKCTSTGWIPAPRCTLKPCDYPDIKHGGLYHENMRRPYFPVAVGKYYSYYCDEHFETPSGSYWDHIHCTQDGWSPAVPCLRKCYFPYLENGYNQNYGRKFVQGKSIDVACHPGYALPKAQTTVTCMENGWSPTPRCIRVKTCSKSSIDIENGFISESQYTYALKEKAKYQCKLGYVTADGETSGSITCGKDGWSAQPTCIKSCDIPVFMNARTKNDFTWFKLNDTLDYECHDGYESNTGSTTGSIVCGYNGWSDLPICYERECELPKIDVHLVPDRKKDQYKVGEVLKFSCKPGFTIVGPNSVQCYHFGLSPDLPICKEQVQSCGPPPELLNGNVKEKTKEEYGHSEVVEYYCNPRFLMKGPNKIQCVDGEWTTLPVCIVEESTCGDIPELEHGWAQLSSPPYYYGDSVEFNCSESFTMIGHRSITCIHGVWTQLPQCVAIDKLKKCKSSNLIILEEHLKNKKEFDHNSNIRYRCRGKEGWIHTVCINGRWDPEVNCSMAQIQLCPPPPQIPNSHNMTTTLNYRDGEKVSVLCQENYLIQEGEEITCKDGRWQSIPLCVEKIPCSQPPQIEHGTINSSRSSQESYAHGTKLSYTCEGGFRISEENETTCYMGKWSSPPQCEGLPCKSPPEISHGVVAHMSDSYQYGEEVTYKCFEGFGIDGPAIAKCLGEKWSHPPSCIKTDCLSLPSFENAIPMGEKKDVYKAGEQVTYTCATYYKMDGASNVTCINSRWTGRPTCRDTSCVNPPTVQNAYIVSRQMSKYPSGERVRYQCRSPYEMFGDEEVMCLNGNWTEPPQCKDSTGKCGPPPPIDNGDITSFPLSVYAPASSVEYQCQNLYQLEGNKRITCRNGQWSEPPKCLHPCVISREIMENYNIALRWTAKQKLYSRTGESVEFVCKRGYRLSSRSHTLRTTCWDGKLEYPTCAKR
CFHR3, sequence (Q02985 19-330): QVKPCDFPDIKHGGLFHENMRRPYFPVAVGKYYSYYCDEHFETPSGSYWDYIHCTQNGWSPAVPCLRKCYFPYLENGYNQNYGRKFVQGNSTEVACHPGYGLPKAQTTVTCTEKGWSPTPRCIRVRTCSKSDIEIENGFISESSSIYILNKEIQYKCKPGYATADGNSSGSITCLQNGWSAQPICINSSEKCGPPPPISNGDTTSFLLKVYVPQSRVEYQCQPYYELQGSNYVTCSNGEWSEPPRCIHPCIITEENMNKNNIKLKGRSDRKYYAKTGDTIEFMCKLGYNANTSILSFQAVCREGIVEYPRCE

CFHR1 (from UniProt Q03591)
Kd (C3d C3d (Homo sapiens)): 1.2 µM

CFHR1 Mut1 (N216A/D218A) (from UniProt Q03591 19-330) (natural protein)
alternative pathway hemolysis of guinea pig erythrocytes in 10% NHS with 140 nM CFH plus 2 μM CFHR1 Mut1 (competition with CFH for C3b; ~8% with CFH alone) [1]: 8%

CFHR1 Mut2 (Q238A/Y241A) (from UniProt Q03591 19-330) (natural protein)
alternative pathway hemolysis of guinea pig erythrocytes in 10% NHS with 140 nM CFH plus 2 μM CFHR1 Mut2 (competition with CFH for C3b; ~8% with CFH alone) [1]: 6%

CFHR1 Mut3 (Y52S/S54Y/Y57E) (from UniProt Q03591 19-330) (natural protein)
alternative pathway hemolysis of guinea pig erythrocytes in 10% NHS with 140 nM CFH plus 2 μM CFHR1 Mut3 (competition with CFH for C3b; ~8% with CFH alone) [2]: 12%

CFHR3 (from UniProt Q02985)
Kd (C3d C3d (Homo sapiens)): 1.1 µM

complement factor H (CFH), recombinant (from UniProt P08603-1 19-1231) (natural protein)
alternative pathway hemolysis of guinea pig erythrocytes in 10% NHS with 140 nM CFH added (~58% without added CFH) [1]: 8%

complement factor H-related protein 1 (CFHR1), recombinant wild-type (from UniProt Q03591 19-330) (natural protein)
alternative pathway hemolysis of guinea pig erythrocytes in 10% NHS with 140 nM CFH plus 2 μM wild-type CFHR1 (competition with CFH for C3b; ~8% with CFH alone) [1]: 23%
